The values that follow come from patent publication US20250152743A1, “SYNPOPTOSIS CIRCUITS FOR PROGRAMMABLE CELL DEATH CONTROL” (California Institute of Technology, priority 2023, published 2025).

The test concerns the target Caspase-3-L-tev-S (Homo sapiens (Human)) (UniProt P42574). The experiment in a line: cell-based or functional assay.

membrane-bound TEVP (CAAX) (enzyme): the cell death of polytransfected HEK293 cells, Annexin V staining and flow cytometry turned out to be 40 % cell death.
